B2: HMGB1-EGFP protein (rat HMGB1 expressed from pEGFP-N1-HMGB1) (other)
chain: MGKGDPKKPRGKMSSYAFFVQTCREEHKKKHPDASVNFSEFSKKCSERWKTMSAKEKGKFEDMAKADKARYEREMKTYIPPKGETKKKFKDPNAPKRPPSAFFLFCSEYRPKIKGEHPGLSIGDVAKKLGEMWNNTAADDKQPYEKKAAKLKEKYEKDIAAYRAKGKPDAAKKGVVKAEKSKKKKEEEDDEEDEEDEEEEEEEEDEDEEEDDDDE
notes: Expressed in HeLa cells by transfection; precipitated from the lysate with anti-HMGB or anti-EGFP antibody; The order HMGB1 then EGFP follows from the vector pEGFP-N1; HeLa cells also carry endogenous human HMGB1; also called HMGB-EGFP protein; not shown: EGFP and linker encoded by pEGFP-N1 (Clontech)
B3: HMGB2-EGFP protein (rat HMGB2 expressed from pEGFP-N1-HMGB2) (other)
chain: MGKGDPNKPRGKMSSYAFFVQTCREEHKKKHPDSSVNFAEFSKKCSERWKTMSAKEKSKFEDLAKSDKARYDREMKNYVPPKGDKKGKKKDPNAPKRPPSAFFLFCSEHRPKIKSEHPGLSIGDTAKKLGEMWSEQSAKDKQPYEQKAAKLKEKYEKDIAAYRAKGKSEVGKKGPGRPTGSKKKNEPEDEEEEEEEEDDEDEEEEDEDEE
notes: Expressed in HeLa cells by transfection; precipitated from the lysate with anti-HMGB or anti-EGFP antibody; The order HMGB2 then EGFP follows from the vector pEGFP-N1; also called HMGB-EGFP protein; not shown: EGFP and linker encoded by pEGFP-N1 (Clontech)

Tests used:
Test in all cases: co-immunoprecipitation from HeLa cell lysate with anti-HMGB or anti-EGFP antibody, blot with CAG53b
[1] = target: B2
Method: (§1) HeLa cells (1×10⁶) in a 10 cm dish were transfected with pEGFP-N1, pEGFP-N1-HMGB1 or pEGFP-N1-HMGB2 using SuperFect (invitrogen). The cells were also infected with adenoviral vectors (AxCAwt, AxCA-HMGB1, AxCA-HMGB2, AxCA-htt20Q, AxCA-htt111Q, AxCA-AT1-30Q or AxCA-AT1-82Q) in the same manner as described above. Immunoprecipitation was performed according to a known technique (Okazawa, H. et al., Neuron. 34, 701-713. (2002)). Specifically, collected HeLa cells were incubated at 4° C. in TNE buffer (10 mM Tris-HCl (pH7.8), […], 0.15M NaCl, 1 mM EDTA) for 1 hour and were then centrifuged at 17,400×g for 20 min. The supernatant was preincubated with protein G-Sepharose (Amersham Biosciences) at 4° C. for 2 hours and then centrifuged. The supernatant was incubated with anti-HMGB1 antibody (1:600, BD Biosciences), anti-HMGB2 antibody (1:600, BD Biosciences) or anti-GFP antibody (1:600, Clontech) overnight and was subsequently incubated with protein G-Sepharose for 2 hours. The protein G beads were collected by centrifugation (2,000×g) for 5 min and washed 5 times with TNE buffer. The bound proteins were eluted with a sample buffer, separated by SDS-PAGE, and blotted with CAG53b antibody (Scherzinger, E. et al., Cell. 90, 549-558. (1997)).
(§2) A plasmid pEGFP-N-1-HMGB1/2 was transfected into Hela cells and the cells were infected with an adenoviral vector designed to express normal or mutant polyglutamine protein. The cells expressed normal or mutant polyglutamine protein. The expression levels of polyglutamine protein and HMGB-EGFP protein were checked by Western blot using CAG53b antibody and anti-GFP antibody (left panel in FIG. 5). Immunoprecipitation was performed using anti-HMGB or anti-EGFP antibody. […] The pull-down assay using HeLa cells expressing polyglutamine protein indicated interaction between mutant polyglutamine protein and HMGB protein (FIG. 6).

[2] = target: B3
Method: as §1, §2

[3] = target: T1, normal ataxin-1 (AT1-30Q) (human, UniProt P54253 1-815)
T1 construct: mature; Polyglutamine tract of 30 glutamines; also called normal AT1; normal polyglutamine protein
T1 sequence (looked up): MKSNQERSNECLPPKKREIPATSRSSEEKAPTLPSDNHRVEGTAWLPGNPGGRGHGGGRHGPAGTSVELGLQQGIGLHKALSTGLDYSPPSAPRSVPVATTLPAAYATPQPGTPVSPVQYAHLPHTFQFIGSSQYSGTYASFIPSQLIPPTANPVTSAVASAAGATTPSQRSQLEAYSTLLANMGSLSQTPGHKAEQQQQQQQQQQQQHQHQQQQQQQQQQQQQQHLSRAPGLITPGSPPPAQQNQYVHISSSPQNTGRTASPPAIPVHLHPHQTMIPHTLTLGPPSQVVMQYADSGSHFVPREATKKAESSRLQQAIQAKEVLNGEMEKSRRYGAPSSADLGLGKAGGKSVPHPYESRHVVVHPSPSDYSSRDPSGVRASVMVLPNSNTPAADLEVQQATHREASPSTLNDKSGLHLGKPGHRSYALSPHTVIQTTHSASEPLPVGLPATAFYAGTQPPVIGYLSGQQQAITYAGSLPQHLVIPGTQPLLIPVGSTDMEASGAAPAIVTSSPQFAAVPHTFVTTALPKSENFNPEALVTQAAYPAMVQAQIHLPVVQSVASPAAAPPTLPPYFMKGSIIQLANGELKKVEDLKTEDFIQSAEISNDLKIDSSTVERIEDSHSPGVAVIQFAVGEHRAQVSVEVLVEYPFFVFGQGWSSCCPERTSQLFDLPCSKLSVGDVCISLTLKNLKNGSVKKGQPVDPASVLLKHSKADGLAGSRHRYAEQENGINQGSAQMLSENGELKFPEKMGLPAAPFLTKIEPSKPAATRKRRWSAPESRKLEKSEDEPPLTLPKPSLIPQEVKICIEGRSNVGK
Method: as §1, §2

B1: normal huntingtin (Htt20Q) (other, human, UniProt P42858 1-88, looked up)
chain: MATLEKLMKAFESLKSFQQQQQQQQQQQQQQQQQQQQQPPPPPPPPPPPQLPQPPPQAQPLLPQPQPPPPPPPPPPGPAVAEEPLHRP
notes: domain: exon I; Only exon I of huntingtin, with 20 glutamines; also called normal Htt; normal polyglutamine protein
- binding result [1]: no binding
- binding result [2]: no binding

Binder: B2
- binding result [3]: no binding

Binder: B3
- binding result [3]: no binding

Reference: patent US20090280488A1 (NATIONAL UNIVERSITY CORPORATION TOKYO MEDICAL AND DENTAL …, published 2009)
